These sequences were tested against EPHB1 (UniProt P54762) (assay: phosphorylation enrichment, bacterial display (enrichment ratio); higher = better substrate or ligand; peptides without Tyr show the background).
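Note: 11-residue human phosphosite peptides and single-mutation variants displayed on the E. coli surface, counted by deep sequencing, each peptide's frequency after selection divided by its frequency in the unselected input library; frequency after pTyr selection over input frequency; kinase dosed for 20-30% of maximal phosphorylation in three min.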

Sequence of EPHB1 (P54762 whole entry, looked up): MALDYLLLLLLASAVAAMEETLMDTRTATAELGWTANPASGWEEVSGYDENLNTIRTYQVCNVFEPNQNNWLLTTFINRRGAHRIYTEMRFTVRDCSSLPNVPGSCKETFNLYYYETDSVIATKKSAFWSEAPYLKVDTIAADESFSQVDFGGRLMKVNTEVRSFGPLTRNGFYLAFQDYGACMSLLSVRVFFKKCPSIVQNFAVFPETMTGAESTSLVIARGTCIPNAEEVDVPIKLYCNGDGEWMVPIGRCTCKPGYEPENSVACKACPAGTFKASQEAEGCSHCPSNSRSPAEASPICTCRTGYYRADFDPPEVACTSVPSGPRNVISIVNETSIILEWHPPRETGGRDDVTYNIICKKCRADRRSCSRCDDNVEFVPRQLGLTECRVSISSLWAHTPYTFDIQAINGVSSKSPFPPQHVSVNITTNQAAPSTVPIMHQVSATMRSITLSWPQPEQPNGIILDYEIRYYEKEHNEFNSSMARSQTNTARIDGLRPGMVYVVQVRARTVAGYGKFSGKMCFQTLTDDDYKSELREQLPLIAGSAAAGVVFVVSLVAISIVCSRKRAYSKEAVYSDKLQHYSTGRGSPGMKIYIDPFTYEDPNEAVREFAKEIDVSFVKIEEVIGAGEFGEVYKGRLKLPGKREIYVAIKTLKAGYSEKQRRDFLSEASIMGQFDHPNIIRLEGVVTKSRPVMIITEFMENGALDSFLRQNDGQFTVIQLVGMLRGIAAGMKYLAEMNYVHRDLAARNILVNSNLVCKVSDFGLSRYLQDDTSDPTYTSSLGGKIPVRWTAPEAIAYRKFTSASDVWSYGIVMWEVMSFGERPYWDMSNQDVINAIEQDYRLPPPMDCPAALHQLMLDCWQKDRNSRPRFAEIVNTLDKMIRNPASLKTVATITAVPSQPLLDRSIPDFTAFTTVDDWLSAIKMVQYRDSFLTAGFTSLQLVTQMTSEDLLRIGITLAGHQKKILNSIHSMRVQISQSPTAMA

| Sequence | phosphorylation enrichment |
| --- | --- |
| FRARAYGFRGP [CHGA_Y381] | 0.472 |
| GRVYVYRLSEQ [ITGAE_Y551] | 0.539 |
| SILTVYSKDNY [PANK2_Y400_A398T] | 0.535 |
| CTTIHYNYMCT [TP53_Y234_N239T] | 2.71 |
| TLLAFYMGNFS [GLB1_Y552_P549L] | 0.943 |
| CTTILYNYMCN [TP53_Y234_H233L] | 0.958 |
| AEYGLYRAMVR [VSX2_Y222_G223R] | 2.89 |
| RDSQIYAVDYE [MRPS34_Y34_L33I] | 2.44 |
| VKMLPYTEVTR [GDI1_Y93_L92P] | 0.437 |
| AGITAYQSCLQ [ADGRA2_Y377] | 0.685 |
| ALTDNYMFLVI [HAGH_Y61_YF] | 8.31 |
| FASALYGQRRS [FGF11_Y162_R163G_YF] | 0.343 |
| EGTATYAAAVL [JUP_Y644] | 0.561 |
| ITGNGYFFRVF [MYBPC3_Y1135_I1131T_YF] | 0.496 |
| KNKELYSDPFD [PDE10A_Y300_L303P] | 0.878 |
| FDRREYSRFEK [ITGB7_Y758_YF] | 0.415 |
| RGESFYQDRMN [RARS_Y338] | 0.463 |
| KPPFSYNALIM [FOXG1_Y186] | 0.424 |
| QKMLDYLKEKK [RYR2_Y3780] | 0.401 |
| QNAGDYYDLYG [PTPN11_Y62_T59A] | 15.5 |
| HILRVYSGVLP [PCNX4_Y999_G1000S] | 0.841 |
| SSSPTYPDLPF [GLI3_Y168] | 0.634 |
| NTYEKYWLFYQ [GATM_Y103_P105L] | 4.77 |
| KPMDTYFDSTR [DYNC2H1_Y2230_YF] | 0.666 |
| RLEGVYRNNID [PTEN_Y46] | 0.478 |
| DPNQQYYIAMD [TBX15_Y159_H156N] | 0.875 |
| VDSLRYIYPKL [EIF2B3_Y92_A87V] | 0.561 |
| ALWFIYLHTRS [ENG_Y614_S615L_YF] | 0.585 |
| FSNVLYRPRGA [TMIGD2_Y197_YF] | 0.415 |

Each sequence was assayed against MERTK (UniProt Q12866) in the same assay as above.
Sequence of MERTK (Q12866 whole entry, looked up): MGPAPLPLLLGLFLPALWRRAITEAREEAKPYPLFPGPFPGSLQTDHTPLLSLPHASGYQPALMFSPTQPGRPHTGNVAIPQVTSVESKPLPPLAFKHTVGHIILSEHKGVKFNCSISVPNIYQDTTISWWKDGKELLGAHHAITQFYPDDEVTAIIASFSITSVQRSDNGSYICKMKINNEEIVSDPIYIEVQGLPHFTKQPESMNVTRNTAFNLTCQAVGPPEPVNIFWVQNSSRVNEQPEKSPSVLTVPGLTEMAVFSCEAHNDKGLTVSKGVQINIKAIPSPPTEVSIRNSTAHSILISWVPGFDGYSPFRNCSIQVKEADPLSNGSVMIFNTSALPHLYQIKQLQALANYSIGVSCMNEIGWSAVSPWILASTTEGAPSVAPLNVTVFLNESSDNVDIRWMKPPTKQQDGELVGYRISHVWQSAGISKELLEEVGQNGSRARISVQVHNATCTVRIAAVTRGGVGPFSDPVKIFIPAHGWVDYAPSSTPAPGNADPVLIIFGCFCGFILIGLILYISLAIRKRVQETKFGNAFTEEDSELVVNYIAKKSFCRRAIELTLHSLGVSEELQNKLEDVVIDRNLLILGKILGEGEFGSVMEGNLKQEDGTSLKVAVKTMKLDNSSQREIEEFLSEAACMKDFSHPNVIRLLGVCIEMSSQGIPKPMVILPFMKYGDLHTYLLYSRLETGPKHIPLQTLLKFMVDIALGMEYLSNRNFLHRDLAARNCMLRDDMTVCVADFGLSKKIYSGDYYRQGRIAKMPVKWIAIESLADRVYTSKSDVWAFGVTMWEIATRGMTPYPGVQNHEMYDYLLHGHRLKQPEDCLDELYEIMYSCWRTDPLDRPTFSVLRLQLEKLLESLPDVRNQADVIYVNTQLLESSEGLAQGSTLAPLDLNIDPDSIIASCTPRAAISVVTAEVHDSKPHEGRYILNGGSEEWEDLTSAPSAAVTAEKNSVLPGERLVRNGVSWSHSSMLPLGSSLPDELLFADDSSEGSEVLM

| Sequence | phosphorylation enrichment |
| --- | --- |
| FRARAYGFRGP [CHGA_Y381] | 0.748 |
| GRVYVYRLSEQ [ITGAE_Y551] | 0.4 |
| SILTVYSKDNY [PANK2_Y400_A398T] | 0.383 |
| CTTIHYNYMCT [TP53_Y234_N239T] | 0.784 |
| TLLAFYMGNFS [GLB1_Y552_P549L] | 0.625 |
| CTTILYNYMCN [TP53_Y234_H233L] | 2.36 |
| AEYGLYRAMVR [VSX2_Y222_G223R] | 2.38 |
| RDSQIYAVDYE [MRPS34_Y34_L33I] | 4.3 |
| VKMLPYTEVTR [GDI1_Y93_L92P] | 0.494 |
| AGITAYQSCLQ [ADGRA2_Y377] | 0.59 |
| ALTDNYMFLVI [HAGH_Y61_YF] | 1.97 |
| FASALYGQRRS [FGF11_Y162_R163G_YF] | 0.516 |
| EGTATYAAAVL [JUP_Y644] | 0.438 |
| ITGNGYFFRVF [MYBPC3_Y1135_I1131T_YF] | 0.305 |
| KNKELYSDPFD [PDE10A_Y300_L303P] | 0.786 |
| FDRREYSRFEK [ITGB7_Y758_YF] | 0.47 |
| RGESFYQDRMN [RARS_Y338] | 0.469 |
| KPPFSYNALIM [FOXG1_Y186] | 0.525 |
| QKMLDYLKEKK [RYR2_Y3780] | 0.398 |
| QNAGDYYDLYG [PTPN11_Y62_T59A] | 3 |
| HILRVYSGVLP [PCNX4_Y999_G1000S] | 0.576 |
| SSSPTYPDLPF [GLI3_Y168] | 0.654 |
| NTYEKYWLFYQ [GATM_Y103_P105L] | 1.78 |
| KPMDTYFDSTR [DYNC2H1_Y2230_YF] | 0.489 |
| RLEGVYRNNID [PTEN_Y46] | 0.291 |
| DPNQQYYIAMD [TBX15_Y159_H156N] | 1.65 |
| VDSLRYIYPKL [EIF2B3_Y92_A87V] | 0.489 |
| ALWFIYLHTRS [ENG_Y614_S615L_YF] | 0.422 |
| FSNVLYRPRGA [TMIGD2_Y197_YF] | 0.418 |

These sequences were tested against FGFR3 (UniProt P22607) in the same assay as above.
Sequence of FGFR3 (P22607 whole entry, looked up): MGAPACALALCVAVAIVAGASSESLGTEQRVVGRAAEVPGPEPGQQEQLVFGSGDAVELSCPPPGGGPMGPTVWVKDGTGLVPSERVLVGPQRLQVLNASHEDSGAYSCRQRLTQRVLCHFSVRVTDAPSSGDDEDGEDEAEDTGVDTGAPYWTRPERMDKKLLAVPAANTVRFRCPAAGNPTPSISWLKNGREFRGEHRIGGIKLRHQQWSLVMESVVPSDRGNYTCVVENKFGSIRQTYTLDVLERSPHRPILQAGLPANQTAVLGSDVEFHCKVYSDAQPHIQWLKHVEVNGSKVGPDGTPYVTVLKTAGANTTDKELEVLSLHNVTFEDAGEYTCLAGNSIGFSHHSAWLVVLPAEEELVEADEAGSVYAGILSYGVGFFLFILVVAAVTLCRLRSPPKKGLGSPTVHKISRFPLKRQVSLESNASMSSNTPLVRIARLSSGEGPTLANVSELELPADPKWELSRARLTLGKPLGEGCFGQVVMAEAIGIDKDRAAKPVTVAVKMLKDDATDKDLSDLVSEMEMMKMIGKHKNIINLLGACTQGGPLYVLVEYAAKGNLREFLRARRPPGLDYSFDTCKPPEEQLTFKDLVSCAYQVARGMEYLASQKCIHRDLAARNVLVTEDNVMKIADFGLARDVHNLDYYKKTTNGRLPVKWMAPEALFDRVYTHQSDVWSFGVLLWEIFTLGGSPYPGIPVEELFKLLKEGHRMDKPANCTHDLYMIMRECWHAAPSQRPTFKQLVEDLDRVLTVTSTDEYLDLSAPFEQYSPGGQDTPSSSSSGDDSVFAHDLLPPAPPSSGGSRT

| Sequence | phosphorylation enrichment |
| --- | --- |
| FRARAYGFRGP [CHGA_Y381] | 0.427 |
| GRVYVYRLSEQ [ITGAE_Y551] | 0.661 |
| SILTVYSKDNY [PANK2_Y400_A398T] | 0.594 |
| CTTIHYNYMCT [TP53_Y234_N239T] | 0.817 |
| TLLAFYMGNFS [GLB1_Y552_P549L] | 0.839 |
| CTTILYNYMCN [TP53_Y234_H233L] | 0.894 |
| AEYGLYRAMVR [VSX2_Y222_G223R] | 0.679 |
| RDSQIYAVDYE [MRPS34_Y34_L33I] | 1.37 |
| VKMLPYTEVTR [GDI1_Y93_L92P] | 0.49 |
| AGITAYQSCLQ [ADGRA2_Y377] | 0.951 |
| ALTDNYMFLVI [HAGH_Y61_YF] | 5.16 |
| FASALYGQRRS [FGF11_Y162_R163G_YF] | 0.442 |
| EGTATYAAAVL [JUP_Y644] | 0.458 |
| ITGNGYFFRVF [MYBPC3_Y1135_I1131T_YF] | 0.595 |
| KNKELYSDPFD [PDE10A_Y300_L303P] | 0.935 |
| FDRREYSRFEK [ITGB7_Y758_YF] | 0.526 |
| RGESFYQDRMN [RARS_Y338] | 0.512 |
| KPPFSYNALIM [FOXG1_Y186] | 0.628 |
| QKMLDYLKEKK [RYR2_Y3780] | 0.673 |
| QNAGDYYDLYG [PTPN11_Y62_T59A] | 20.3 |
| HILRVYSGVLP [PCNX4_Y999_G1000S] | 1.12 |
| SSSPTYPDLPF [GLI3_Y168] | 0.627 |
| NTYEKYWLFYQ [GATM_Y103_P105L] | 1.65 |
| KPMDTYFDSTR [DYNC2H1_Y2230_YF] | 0.651 |
| RLEGVYRNNID [PTEN_Y46] | 0.703 |
| DPNQQYYIAMD [TBX15_Y159_H156N] | 2.95 |
| VDSLRYIYPKL [EIF2B3_Y92_A87V] | 0.655 |
| ALWFIYLHTRS [ENG_Y614_S615L_YF] | 0.778 |
| FSNVLYRPRGA [TMIGD2_Y197_YF] | 0.43 |

What follows are sequences tested on Fer (mouse) in the same assay as above.

| Sequence | phosphorylation enrichment |
| --- | --- |
| FRARAYGFRGP [CHGA_Y381] | 0.532 |
| GRVYVYRLSEQ [ITGAE_Y551] | 0.508 |
| SILTVYSKDNY [PANK2_Y400_A398T] | 0.388 |
| CTTIHYNYMCT [TP53_Y234_N239T] | 0.915 |
| TLLAFYMGNFS [GLB1_Y552_P549L] | 0.559 |
| CTTILYNYMCN [TP53_Y234_H233L] | 1.2 |
| AEYGLYRAMVR [VSX2_Y222_G223R] | 0.603 |
| RDSQIYAVDYE [MRPS34_Y34_L33I] | 1.89 |
| VKMLPYTEVTR [GDI1_Y93_L92P] | 0.282 |
| AGITAYQSCLQ [ADGRA2_Y377] | 0.63 |
| ALTDNYMFLVI [HAGH_Y61_YF] | 2.88 |
| FASALYGQRRS [FGF11_Y162_R163G_YF] | 0.505 |
| EGTATYAAAVL [JUP_Y644] | 1.06 |
| ITGNGYFFRVF [MYBPC3_Y1135_I1131T_YF] | 0.416 |
| KNKELYSDPFD [PDE10A_Y300_L303P] | 0.983 |
| FDRREYSRFEK [ITGB7_Y758_YF] | 0.392 |
| RGESFYQDRMN [RARS_Y338] | 0.603 |
| KPPFSYNALIM [FOXG1_Y186] | 0.461 |
| QKMLDYLKEKK [RYR2_Y3780] | 0.442 |
| QNAGDYYDLYG [PTPN11_Y62_T59A] | 1.56 |
| HILRVYSGVLP [PCNX4_Y999_G1000S] | 0.612 |
| SSSPTYPDLPF [GLI3_Y168] | 0.745 |
| NTYEKYWLFYQ [GATM_Y103_P105L] | 0.874 |
| KPMDTYFDSTR [DYNC2H1_Y2230_YF] | 0.526 |
| RLEGVYRNNID [PTEN_Y46] | 0.849 |
| DPNQQYYIAMD [TBX15_Y159_H156N] | 0.487 |
| VDSLRYIYPKL [EIF2B3_Y92_A87V] | 0.532 |
| ALWFIYLHTRS [ENG_Y614_S615L_YF] | 0.485 |
| FSNVLYRPRGA [TMIGD2_Y197_YF] | 0.479 |
